Measured values: doi:10.1101/2024.04.16.588673 (bioRxiv, 2024)
Blank lines part the entries; values can stand above or below the binder they belong to.

Target: T1, parathyroid hormone 1 receptor (PTH1R), C-tagged Citrine (human, UniProt Q03431 27-593)
T1 sequence: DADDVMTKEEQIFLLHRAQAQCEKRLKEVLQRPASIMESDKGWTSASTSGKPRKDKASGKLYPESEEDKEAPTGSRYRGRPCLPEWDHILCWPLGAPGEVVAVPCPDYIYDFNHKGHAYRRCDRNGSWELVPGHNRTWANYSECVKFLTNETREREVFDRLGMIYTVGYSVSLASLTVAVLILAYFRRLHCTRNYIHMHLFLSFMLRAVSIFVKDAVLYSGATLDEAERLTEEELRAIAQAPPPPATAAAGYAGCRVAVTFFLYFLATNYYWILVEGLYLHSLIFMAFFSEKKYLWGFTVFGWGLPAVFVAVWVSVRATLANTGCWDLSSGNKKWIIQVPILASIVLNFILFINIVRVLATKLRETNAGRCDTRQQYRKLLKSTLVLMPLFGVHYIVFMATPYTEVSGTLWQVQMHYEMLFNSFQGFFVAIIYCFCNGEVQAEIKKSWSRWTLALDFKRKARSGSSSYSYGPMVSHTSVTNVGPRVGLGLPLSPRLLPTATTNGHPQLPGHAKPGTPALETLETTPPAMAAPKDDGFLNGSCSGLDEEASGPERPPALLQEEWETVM
Test: FRET or BRET

stoichiometry N: ~2 RAMP3 per PTH1R
B1: receptor activity-modifying protein 3 (RAMP3), C-tagged Cerulean (natural protein)
chain: RAGGCNETGMLERLPLCGKAFADMMGKVDVWKWCNLSEFIVYYESFTNCTEMEANVVGCYWPNPLAQGFITGIHRQFFSNCTVDRVHLEDPPDEVLIPLIVIPVVLTVAMAGLVVWRSKRTDTLL

stoichiometry N: ~1 RAMP2 per PTH1R
B2: receptor activity-modifying protein 2 (RAMP2), C-tagged Cerulean (natural protein)
chain: QPLPTTGTPGSEGGTVKNYETAVQFCWNHYKDQMDPIEKDWCDWAMISRPYSTLRDCLEHFAELFDLGFPNPLAERIIFETHQIHFANCSLVQPTFSDPPEDVLLAMIIAPICLIPFLITLVVWRSKDSEAQA
